Reference: patent US7803572B2, “Protease detection assay” (Atlas Genetics, Ltd., priority 2003, dated 2010)
Values belong to the molecule of their own block, whether it stands above or below them.

How the values were obtained:
[1] = target: porcine pancreas trypsin (1120 BAEE units/mg solid) (porcine) (UniProt P00761); assay: cell-based or functional assay
porcine pancreas trypsin [2] = target: T1, porcine pancreas trypsin (Sus scrofa, UniProt P00761); assay: Digestion of labelled protein with trypsin, differential pulse voltammetry; assay type: biochemical
T1 construct: purchased Sigma; host or cells: porcine pancreas
Experimental: (§1) Protease assays were performed as follows unless stated otherwise. […] Samples were incubated at 37° C. for 1 hour.
A digestion of Fc-BSA with trypsin was carried out as described above. […] The positive reaction has a peak position of 435 mV and a peak height of 4.58×10^−7 A; the no trypsin control reaction has a peak position of 432 mV and a peak height of 2.55×10^−8 A.
A digestion of unlabelled BSA with trypsin was carried out in the same manner as for the labelled molecules as described above. The differential pulse voltammogram results are shown in FIG. 10 in which (a) is the trace for a no-trypsin control reaction and (b) is the trace for trypsin BSA reaction.
A digestion of FcU-BSA with trypsin was carried out as described above. […] The positive reaction has a peak position of 97 mV and a peak height of 5.01×10^−7 A; there was no peak in the no-trypsin control reaction. […]
Five digestions of Fc-BSA with trypsin were carried out using the protocol described above. As described in the general protocol, 2 μl of enzyme was used for each 200 μl reaction; for reaction (i) 10 mg/ml enzyme solution was used; reaction (ii): 1 mg/ml; reaction (iii) 0.1 mg/ml; reaction (iv) 0.01 mg/ml and reaction (v) was a no-trypsin control. The differential pulse voltammogram results are shown in FIG. 14 with baseline correction.
Five digestions of Fc-BSA with trypsin were carried out using the protocol described above. In reaction (i) the incubation at 37° was carried out for 60 minutes, in reaction (ii) for 15 minutes, in reaction (iii) for 5 minutes, in reaction (iv) for 2 minutes and reaction (v) was a 0 minutes no-trypsin control. The differential pulse voltammogram results are shown in FIG. 15 with baseline correction.

papaya latex papain = target: T2, papaya latex papain (Carica papaya, UniProt P00784); assay: Digestion of FcU-BSA with papain, differential pulse voltammetry; assay type: biochemical
T2 construct: purchased Sigma; host or cells: papaya latex
T2 sequence (P00784 134-345): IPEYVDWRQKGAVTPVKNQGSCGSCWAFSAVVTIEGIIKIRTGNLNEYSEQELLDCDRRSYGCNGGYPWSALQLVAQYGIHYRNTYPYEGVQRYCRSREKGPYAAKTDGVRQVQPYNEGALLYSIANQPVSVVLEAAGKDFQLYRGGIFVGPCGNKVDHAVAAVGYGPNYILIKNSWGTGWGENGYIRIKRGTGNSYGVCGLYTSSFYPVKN
Experimental: as §1
A digestion of FcU-BSA with papain was carried out as described above.

trypsin = target: T3, trypsin (Sus scrofa, UniProt P00761); assay: Amperometric analysis of trypsin digestion; assay type: biochemical, porcine; details: amperometric time course trace
T3 construct: purchased Sigma; host or cells: porcine pancreas
Experimental: (§2) Four digestion reactions were carried out with real-time amperometric analysis. […] Tryspin was resuspended in HCl (1 mM, pH 3.0), papain and carboxypeptidase were resuspended in NaCl (100 mM). […] The amperometry conditions were as set out in Tables 2 and 3.
In FIG. 17, there is shown the amperometric time course trace for the trypsin digestion of Fc-BSA. […] As the movement of the species present in the solution reaches a steady state, the current response appears to decay.
(§3) In FIG. 18, there is shown the amperometric time course trace for the papain digestion of FcU-BSA. […] As the movement of the species present in the solution reaches a steady state, the current response appears to decay. […] The amperometric time course trace for the trypsin digestion of FcU-BSA is not illustrated in the drawings but was analogous.

papain = target: T4, papain (Carica papaya, UniProt P00784); assay: Amperometric analysis of papain digestion; assay type: biochemical; details: amperometric time course trace, FIG. 18
T4 construct: purchased Sigma; host or cells: papaya latex
T4 sequence (P00784 134-345): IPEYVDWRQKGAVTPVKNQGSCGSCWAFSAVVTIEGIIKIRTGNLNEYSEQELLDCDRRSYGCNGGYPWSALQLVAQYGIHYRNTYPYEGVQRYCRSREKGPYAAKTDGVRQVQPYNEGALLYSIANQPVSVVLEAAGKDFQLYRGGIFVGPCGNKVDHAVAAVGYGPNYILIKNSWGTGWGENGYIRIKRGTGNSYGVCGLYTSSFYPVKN
Experimental: as §2, §3

porcine pancreas trypsin [3] = target: T1, porcine pancreas trypsin; assay: Effect of a protease inhibitor on electrochemical marker signal (trypsin digestion of Fc-BSA); assay type: biochemical
Experimental: as §1
Five digestions of Fc-BSA with trypsin were carried out using the protocol described above. In addition, soybean trypsin inhibitor was added to reaction mixtures […]. Solutions of the soybean trypsin inhibitor were prepared by resuspending inhibitor as supplied in deionised water to a concentration of 10 mg/ml and 1 mg/ml as appropriate. No inhibitor was added to reaction (i); 0.5 μl of 1 mg/ml inhibitor solution was added to reaction (ii); […] of 10 mg/ml inhibitor was added to reaction (iii); 5 μl of 10 mg/ml inhibitor solution was added to reaction (iv) and 5 μl of 10 mg/ml inhibitor solution was added to a no-trypsin control reaction. The differential pulse voltammogram results are shown in FIG. 16 with baseline correction.

[4] = target: T5, type I-S soybean trypsin inhibitor, P01070
T5 chain: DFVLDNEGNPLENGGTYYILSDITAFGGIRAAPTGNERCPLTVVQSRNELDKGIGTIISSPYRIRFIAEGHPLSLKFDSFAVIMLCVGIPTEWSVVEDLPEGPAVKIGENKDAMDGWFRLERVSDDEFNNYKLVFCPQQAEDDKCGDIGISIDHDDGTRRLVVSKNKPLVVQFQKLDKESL

[5] = positive reaction, 2 μl enzyme (10 mgml^−1), 37° C. for 1 hour
[6] = positive reaction, 37° C. for 1 hour
[7] = no-trypsin control reaction with 5 μl of 10 mg/ml inhibitor solution
[8] = reaction (ii): 0.5 μl of 1 mg/ml inhibitor solution
[9] = reaction (iii): 0.51 of 10 mg/ml inhibitor
[10] = reaction (iv): 5 μl of 10 mg/ml inhibitor solution

Molecule: unlabelled BSA: Bovine serum albumin (lyophilised powder, approx. 99%) from Sigma, unlabelled control substrate [reference compound]
peaks in differential pulse voltammogram (porcine pancreas trypsin [2]; unlabelled substrate, trypsin reaction and no-trypsin control): No peaks were found

Molecule: FcU-BSA: Bovine serum albumin labelled with 4-(3′-ferrocenylureido)-1-benzoyl groups
peak height (porcine pancreas trypsin [2]; no-trypsin control reaction): no peak
peak height (porcine pancreas trypsin [2]; [5]): 5.01×10^−7 A
peak position (porcine pancreas trypsin [2]; [5]): 97 mV
peak (papaya latex papain; no-papain control reaction): no peak was found
peak height (papaya latex papain; [6]): 2.62×10^−7 A
peak position (papaya latex papain; [6]): 93 mV
faradaic current response over time after addition of the enzyme (trypsin): analogous
faradaic current response over time after addition of the enzyme (papain): increase in current

B2: porcine pancreas trypsin (1120 BAEE units/mg solid) (protein)
chain: IVGGYTCAANSIPYQVSLNSGSHFCGGSLINSQWVVSAAHCYKSRIQVRLGEHNIDVLEGNEQFINAAKIITHPNFNGNTLDNDIMLIKLSSPATLNSRVATVSLPRSCAAAGTECLISGWGNTKSSGSSYPSLLQCLKAPVLSDSSCKSSYPGQITGNMICVGFLEGGKDSCQGDSGGPVVCNGQLQGIVSWGYGCAQKNKPGVYTKVCNYVNWIQQTIAAN
magnitude of signal in the differential pulse voltammogram of trypsin digestion of Fc-BSA [4]: the magnitude of signal in the differential pulse voltammogram is strongly dependent on the concentration of inhibitor present in the digestion experiment

Results, then the molecule that gave them:

peak height, differential pulse voltammogram of trypsin digestion of Fc-BSA; reaction (ii), 0.5 ul of 1 mg/ml inhibitor solution in the 200 ul reaction (no-inhibitor reaction (i): 2.56x10^-7 A) [1]: 2.12e-07 A
Molecule: type I-S soybean trypsin inhibitor (from UniProt P01070 25-205)

peak height (porcine pancreas trypsin [3]; [7]): 2.75×10^−8 A
peak position (porcine pancreas trypsin [3]; [7]): 429 mV
peak height (porcine pancreas trypsin [3]; [8]): 2.12×10^−7 A
peak position (porcine pancreas trypsin [3]; [8]): 435 mV
peak height (porcine pancreas trypsin [3]; [9]): 1.60×10^−7 A
peak position (porcine pancreas trypsin [3]; [9]): 430 mV
peak height (porcine pancreas trypsin [3]; [10]): 5.33×10^−8 A
peak position (porcine pancreas trypsin [3]; [10]): 426 mV
B1: soybean trypsin inhibitor: type I-S soybean trypsin inhibitor obtained from Sigma (protein)
chain: DFVLDNEGNPLENGGTYYILSDITAFGGIRAAPTGNERCPLTVVQSRNELDKGIGTIISSPYRIRFIAEGHPLSLKFDSFAVIMLCVGIPTEWSVVEDLPEGPAVKIGENKDAMDGWFRLERVSDDEFNNYKLVFCPQQAEDDKCGDIGISIDHDDGTRRLVVSKNKPLVVQFQKLDKESL
